B1: NGF: mouse 2.55 NGF, nerve growth factor (protein, UniProt P01139 122-241, looked up)
Beta-nerve growth factor: SSTHPVFHMGEFSVCDSVSVWVGDKTTATDIKGKEVTVLAEVNINNSVFRQYFFETKCRASNPVESGCRGIDSKHWNSYCTTTHTFVKALTTDEKQAAWRFIRIDTACVCVLSRKATRRG
B2: BDNF: brain-derived neurotrophic factor (protein, UniProt P23560 19-247, looked up)
Neurotrophic factor BDNF …: APMKEANIRGQGGLAYPGVRTHGTLESVNGPKAGSRGLTSLADTFEHVIEELLDEDQKVRPNEENNKDADLYTSRVMLSSQVPLEPPLLFLLEEYKNYLDAANMSMRVRRHSDPARRGELSVCDSISEWVTAADKKTAVDMSGGTVTVLEKVPVSKGQLKQYFYETKCNPMGYTKEGCRGIDKRHWNSQCRTTQSYVRALTMDSKKRIGWRFIRIDTSCVCTLTIKRGR

Assays:
Type in all cases: cell-based, rat
[1] = test system: c-fos mRNA (Trk receptor tyrosine kinase signaling); assay: RT-PCR analysis of neurotrophin-dependent c-fos induction; conditions: for induction of c-fos mRNA: proliferating controls treated with neurotrophin
Procedure: (§1) Cell Culture. For proliferating conditions, clonal stem cells (AP14) were cultured in Dulbecco's Modified Eagles Medium/Ham's F12 (DMEM/F12, 1:1) containing N2 supplement (Gibco BRL, Gaithersburg, Md.) and 20 ng/ml rhFGF-2 (provided by A. Baird, Prizm Pharmaceuticals Inc., La Jolla, Calif.). Culture dishes (Becton Dickinsin Labware, Lincoln Park, N.J.) were coated with polyomithine and mouse laminin as previously described by Ray, et al., Proliferation, differentiation and long-term culture of primary hippocampal neurons, Proc Natl Acad Sci USA 90:3602-3606 (1993). For differentiation experiments, cells were plated into polyornithine/laminin coated glass chamber slides (Nunc, Naperville, Ill.) at a density of 2.5—103 per cm2. The cells were incubated for 24 hrs in normal N2 medium containing 20 ng/ml FGF-2, and then the medium was replaced by N2 medium containing 0.5% […] (FBS) and 0.01% DMSO (control solvent) or […] all-trans retinoic acid (Sigma, St. Louis, Mo.). For further differentiation, the medium was replaced by N2 medium containing 0.5% FBS and one of the following: sterile water (control solvent), mouse 2.55 NGF (50 ng/ml, Boehringer Mannheim, Indianapolis, Ind.), rhBDNF (20 ng/ml, Alomone Labs, Jerusalem, Israel), rhNT-3 (40 ng/ml, Genentech, South San Francisco, Calif.). The medium was replaced every two days. For inhibition of the tyrosine kinase activity of the Trk receptors, K-252a (100 nM, Calbiochem, San Diego, Calif.) was added to the medium.
Reverse Transcription-PCR Analysis. Total RNA from stem cells was isolated using RNeasy Total RNA Kits (Qiagen, Chatsworth, Calif.) according to manufacturer's instructions. Fifty nanograms of total RNA was reverse transcribed using avian myeloblastosis virus reverse transcriptase (Promega, Madison, Wis.) with random hexamers ([…]) as primers in a […] reaction mixture. For PCR amplification, two sets of specific oligonucleotide pairs ([…]) were used: one directed to the transcript of interest, and one for a constitutively expressed transcript, either ribosomal protein L27 or L27a. Reactions were performed in a […] reaction mixture containing 10 mM Tris-Cl (pH 8.4), 50 mm KCl, 1.5 mM MgC12, […] each of the four dNTPs, 2 mCi of [a-32P]dCTP and 5 units of Taq polymerase (Promega) using a thermal cycler (Perkin-Elmer, Foster City, Calif.) with a regimen of 1 min at 94° C., 2 min at 60° C. (55° C. for trk receptors) and 2 min at 72° C. for 23 cycles Fifty microliters of each reaction was analyzed by electrophoresis on 8% polyacrylamide gels followed by autoradiography. […] Under these conditions, the L27 amplification product was directly proportional to the amount of input RNA, up to 50 ng total RNA. Oligonucleotide primers used are as follows: […]
RA treatment also results in neurotrophin-dependent induction of c-fos. Transient and rapid induction of immediate early genes such as c-fos is a well-characterized response to extracellular stimuli in neural cells. c-fos is induced after neurotrophin treatment in cultured […] hippocampal or cortical cells and the signaling cascade following c-fos induction is considered to be integral to subsequent steps in differentiation. To determine whether upregulation of mRNAs for trk receptors and p75NGFR observed in the stem cell cultures results in the acquisition of functional Trk-dependent stimulation of c-fos, mRNA was examined by RT-PCR analysis after stimulating RA-treated cells with neurotrophins. […]

ACSC cultures = assay: Neuronal transmitter phenotype after RA priming and neurotrophin treatment (GABA, TH, calbindin, AChE); conditions: neurotrophin after 6 days RA
Procedure: as §1
Immunofluorescence. An immunofluorescent staining was performed as previously described (Gage F H, Ray J, Fisher L J (1995a) Isolation, characterization, and use of stem cells from the CNS. Annu Rev Neurosci 18: 159-192. or Gage F H, Coates P W, Palmer T D, Kuhn H G, Fisher L J, Suhonen J O, Peterson D A, Suhr S T, Ray J (1995b) Survival and differentiation of adult neuronal progenitor cells transplanted to the adult brain. Proc Natl Acad Sci USA 92:11879-11883.) Briefly, after fixation with 4% paraformaldehyde in PBS, cells were incubated with primary antibodies overnight at […]. Then the cells were incubated for 1 hr with secondary antibodies (Jackson Immunoresearch) conjugated to fluorescein isothiocyanate, or cyanin-3. Primary antibody concentrations used are as follows (mo=mouse monoclonal, rb=rabbit polyclonal, gp=guinea pig polyclonal): mo a-MAP2abc, 1:5000 (Sigma), mo a-MAP2ab, 1:500 (Sigma), mo a-p75NGFR, 1:10 (192-IgG hybridoma supernatant, a gift from C. E. Chandler, Stanford Univ., Stanford, Calif.), rb a-c-Fos (4),1:4000 (Santa Cruz Biotechnology, Santa Cruz, Calif.), gp a-GFAP, 1:500 (Advanced Immunochemicals, Long Beach, Calif.), rb a-GABA, 1:5000 (Sigma), mo a-TH, 1:500 (Boehringer Mannheim), rb a-calbindin 1:1000 (SWant, Bellinzona, Switzerland). Labeled cells were visualized using confocal scanning laser microscopy (Zeiss Axiovert, Thornwood, N.Y. and Bio-Rad MRC1000, Hemel Hempstead, UK) and color images were generated using Adobe Photoshop (Adobe Systems, Mountain View, Calif.). Both the average percentage and the absolute number +/− SEM of immunofluorescent cells were determined by counting 10 or 50 high power fields (20×) visualized under fluorescence. The total number of cells was counted using nuclear counterstaining with 4′,6diamidino-2-phenylindole (DAPI, Sigma). Statistical analyses were carried out using ANOVA test.
Histochemical Staining for AChE. Cholinergic cells were identified by histochemical staining for AChE by a modification of the staining method of Geneser-Jensen and Blackstadt. Distribution of acetylcholinesterase in the hippocampal region of the guinea pig. I. Entorhinal area parasubiculum, and pre-subiculum, Z Zellforsch 114:460-481(1971). […]

[2] = test system: low-buoyancy cortical cells; assay: Acquisition of neuron competence by low-buoyancy cortical cells in culture; conditions: 10% serum or 5 ng/ml PDGF instead of FGF-2
From the text: Tissue dissection: Three areas were dissected from adult rat brains as follows. Rats (170-190 g Fisher 344 males or females, Harlan) were deeply anesthetized with a mixture of ketamine, xylazine, and acepromazine. Animals were decapitated and whole brains removed. First, ˜1.5 mm of each optic nerve were harvested rostral to, but not including, the optic chiasma. The brain was then bisected longitudinally and each hippocampal lobe separated from the overlaying cortical white matter using the natural separation line along the alveus hippocampus. The white matter of the fimbria and subiculum was removed as much as possible. Some white matter remained. Finally, a 1.5 mm wide cortical ribbon containing parietal and frontal segments was dissected longitudinally, proximal to the central fissure. The pial and callosal surfaces were trimmed from each cortical ribbon to remove a majority of the meninges and white matter.
Tissue dissociation and fractionation: Tissues were finely minced and digested in a solution of papain (2.5 U/ml, Worthington), DNAse (250 U/ml, Worthington), and neutral protease (1 U/ml Dispase, Boehringer) dissolved in Hanks balanced salt solution, as described in Palmer T D, Ray J, Gage F H (1995), FGF-2-Responsive Neuronal Progenitors Reside in Proliferative and Quiescent Regions of the Adult Rodent Brain. Mol Cell Neurosci 6:474-486; and Gage F H, Coates P W, Palmer T D, Kuhn H G, Fisher L J, Suhonen J O, Peterson D A, Suhr S T, Ray J (1995), Survival and differentiation of adult neuronal progenitor cells transplanted to the adult brain. Proc Natl Acad Sci USA 92:11879-11883. Cells and tissue fragments were washed 3 times with Dulbecco's Modified Eagles Medium (DMEM) containing 10% […] bovine serum (defined FBS, Hyclone). Whole digested tissue was then suspended in DMEM 10% FBS, filtered through a sterile 107 μm nylon mesh and thoroughly mixed with an equal volume of PERCOLL™ (polyvinylpyrrolidone-coated silica colloids) solution. The PERCOLL™ (polyvinylpyrrolidone-coated silica colloids) solution was made by mixing 9 parts of PERCOLL™ (polyvinylpyrrolidone-coated silica colloids) (Pharmacia) with 1 part 10X phosphate buffered saline (PBS, Irvine Scientific). The cell suspension was then fractionated by centrifugation for 30 minute, 18°C., at 20,000×g. […]
To determine how rapidly cortical cells acquired the competence to differentiate into neurons in culture, cells were isolated and cultured in growth medium for various times, allowed to differentiate in differentiation medium and then evaluated for the presence of neurons. […] Cultures were also treated with BrdU for the first 10 days and the newly generated neurons were evaluated for evidence of cell division. All neurons scored were labeled (>99%).

Row | Molecule | c-fos induction by each neurotrophin (NGF, BDNF, NT-3) ([1]; pretreatment with K-252a (100 nM)) | induction of c-fos mRNA [1] | number of AChE-positive cells (ACSC cultures) | number of TH-positive cells (ACSC cultures) | number of calbindin-positive cells (ACSC cultures) | number of neurons expressing GABA (ACSC cultures) | neuron formation in control cultures [2]
1 | COC(=O)[C@@]1(O)C[C@H]2O[C@]1(C)n1c3ccccc3c3c4c(c5c6ccccc6n2c5c31)C(=O)NC4 [K-252a, reference compound] | blocked | – | – | – | – | – | –
2 | NT-3: Neurotrophin-3 | – | slightly increased | small increases over control cultures | increased | increased | increased | –
3 | PDGF | – | – | – | – | – | – | no neurons were formed
4 | B1 | – | minimal | small increases over control cultures | not | – | – | –
5 | B2 | – | minimal | most effective agent | increased | increased | increased | –

— patent publication US6767738B1, “Method of isolating adult mammalian CNS-derived progenitor stem cells using density gradient centrifugation” (The Salk Institute for Biological Studies, priority 1999, dated 2004)
